This data set deals with the molecule itself. Nature of the data set: crystal structure.

Results on one protein are retold here after paper PMC9076272 (RSC Advances, 2019).

B1: Pseudomonas aeruginosa single-stranded DNA-binding protein (PaSSB) (natural protein, UniProt P40947 1-165, looked up)
chain: MARGVNKVILVGNVGGDPETRYMPNGNAVTNITLATSESWKDKQTGQQQERTEWHRVVFFGRLAEIAGEYLRKGSQVYVEGSLRTRKWQGQDGQDRYTTEIVVDINGNMQLLGGRPSGDDSQRAPREPMQRPQQAPQQQSRPAPQQQPAPQPAQDYDSFDDDIPF
The term stoichiometry N denotes the number of molecules, sites or subunits per partner or assembly. As for B1, the “stoichiometry N” value was determined as 4.
